In article PMC7452893 (2020):

How the values were obtained:
[1] = target: T1, SARS-CoV-2 spike receptor-binding domain (RBD), monomeric (SARS-CoV-2, UniProt P0DTC2); test: BLI
[2] = target: T1, SARS-CoV-2 spike receptor-binding …; test: BLI; remark: listed apart in the source

B1: MD63 (antibody, V domains shown)
VH: QVTLKESGGGVVQPGRSLRLSCAASGFTFSSYAMHWVRQAPGKGLEHVSAISSDGGITYFADSVKGRFTISRDNSRNTLFLQMSSLRVEDTAVYYCVKDQDSNSWYDAFDIWGRGTMVTVSS
VL: not shown
modifications: biotinylated when immobilised on the BLI sensor
Kd [1]: 3.4 nM
koff [2]: 0.00053 s⁻¹

B2: MD67 (antibody, V domains shown)
VH: EVQLVESGGGLVQPGGSLRLSCAASGFTVSSNYMTWVRQAPGKGLEWVSVIYSGGSTFYADSVKGRFTISRHNSKNTLYLQMNSLRAEDTAVYYCARDLSVRGGMDVWGQGTTVTVSS
VL: not shown
modifications: biotinylated when immobilised on the BLI sensor
koff [2]: 0.00075 s⁻¹

B3: MD45 (antibody, V domains shown)
VH: EVQLVQSGGGLVQPGGSLRLSCAASGFTVSSNYMTWVRQAPGKGLEWVSVIYSGGSTFYADSVKGRFTISRHNSKNTLYLQMNSLRAEDTAVYYCARDLSVRGGMDVWGQGTMVTVSS
VL: EIVLTQSPGTLSLSPGERATLSCRASQSVNSSYLAWYQQKPGQAPRLLIYGASNRATGIPDRFSGSGSGTDFTLTISRLEPEDFAVYYCQQYGVSPEIIFGQGTRLEIK
modifications: biotinylated when immobilised on the BLI sensor
Kd [1]: 5.6 nM
koff [2]: 0.00055 s⁻¹

B4: MD47 (antibody, V domains shown)
V domain 1: QMQLVQSGGGLVQPGGSLRLSCAASGFTFSSYAMSWVRQAPGKGLEWVSAISSGGSTYYADSVKGRFTISRDNSKNTLYLQMNSLRAEDTAVYYCAKDLVTAPSYEAFDIWGQGTMITVSS
V domain 2: NFMLTQPPSVSVAPGKTARITCGGNNIGSKSVHWYQQKPGQAPVLVIYYDSDRPSGIPERFSGSNSGNTATLTISRVEAGDEADYYCQVWDSSSHHHVVFGGGTKGTVL
modifications: biotinylated when immobilised on the BLI sensor
Kd [1]: 0.5 nM
koff [2]: 9e-05 s⁻¹

B5: MD29 (antibody, V domains shown)
VH: QMQLVQSGGGLVQPGGSLRLSCSASGFTFSTYVMNWVRQAPGKGPEHVSGISSDGGITYYADSVKGRFTISRDNSKNTLYLQMSSLRVEDTAVYYCVKDQDSSSWYDAFDIWGQGTMVTVSS
VL: NIRLTQSPSSLSASVGDRVTITCRATQSISSYLNWYQQKPGKAPNLLIYAASSLQSGVPSRFSGSGSGTDFTLTISSLQPEDFATYYCHQTYTSPYTFGQGTKLEIK
modifications: biotinylated when immobilised on the BLI sensor
koff [2]: 0.00014 s⁻¹

B6: MD17 (antibody, V domains shown)
VH: EVQLLESGGGLVQPGGSLRLSCSASGFTFSTYVMNWVRQAPGKGLEHVSGISSDGGITYYADSVKGRFTISRDNSKNTLYLQMSSLRVEDTAVYYCVKDQDSSSWYDAFDIWGQGTMVTVSS
VL: DIVMTQSPSSLSASVGDRVTITCRASQSISNYLNWYQQKLGKAPKLLTYAASRLQSGVPSRFSASGSGTEFTLTISSLQPEDFATYYCQQSYTTPLTFGGGTKLEIK
modifications: biotinylated when immobilised on the BLI sensor
Kd [1]: 2.6 nM
koff [2]: 0.00026 s⁻¹

B7: MD62 (antibody, V domains shown)
VH: EVQLVQSGGGLIQPGGSLRLSCAASGVTVSSNYMTWVRQAPGKGLEWVSLIYSGGSTYYADSVKGRFTISRDNSKNTLYLQMNSLRAEDTAVYYCARDLQYYGMDVWGQGTMVTVSS
VL: AIRMTQSPSSVSASVGDRVTITCRASQDIGSWLGWYQQKPGKAPKLLIYAASSLAGGVPSRFSGSGSGTDFTLTISSLQPEDFATYYCQQANSFPLTFGGGTKLEIK
modifications: biotinylated when immobilised on the BLI sensor
Kd [1]: 4.8 nM
koff [2]: 0.00063 s⁻¹
